Source: patent US20230092081A1

Target: S. ruber SSB cdel 111 C-terminal deletion mutant lacking the C-terminal 111 residues of the wildtype SSB (Salinibacter ruber)
Experiment: size exclusion chromatography, 150 mM NaCl, self-association

oligomer mass as multiple of the monomer mass (times monomer size): 3.8
Substance: S. ruber SSB cdel 111 C-terminal deletion mutant lacking the C-terminal 111 residues of the wildtype SSB
